Columns and labels:
[1] = system: mouse anti-TGF-β1 monoclonal antibody, 1D11; test: ELISA measured binding activity (immunoreactivity) of TGF-β1; conditions: solution without alginate, up to 0.14% w/v additive
Method: The ability of released TGF-β1 from both untreated and acid treated beads (as described above) to be recognized (bound) by a monoclonal antibody was assayed by ELISA as follows. An enzyme linked immunosorbent assay (ELISA) was used to quantitate the amount of immunoreactive TGF-β1 released from the untreated (PBS) and acid treated (HCl) alginate beads. The ELISA was based on the ability of a mouse anti-TGF-β1 monoclonal antibody, 1D11 (Bristol-Myers Squibb, Seattle, WA), to bind to the TGF-β1 molecule. When the 1D11 antibody was coated on 96-well immunoassay plates it captured TGF-β1 from the applied sample and standard solutions. Captured TGF-β1 was then bound by biotinylated 1D11 antibody which in turn was bound by a horseradish peroxidase/avidin D conjugate (Vector Labs cat #A-2004). A color reaction occurred by adding a chromophore/substrate solution of 3,3',5,5'-tetramethylbenzidine in CPB containing hydrogen peroxide. The reaction was stopped with the addition of 1 N sulfuric acid and the A450 was determined by a plate reader. Concentrations of the unknown samples were quantified relative to a TGF-β1 standard curve run on the same plate.
The immunoreactivity of TGF-β1 in solution in the presence of anionic amino acids, polyanions and polycations was studied using the ELISA procedure described in Example 2. To 1 mg/mL solutions of TGF-β1 in 5 mM HCl was added from 0 to 0.14%(w/v) of glutamic acid, aspartic acid, poly-L-aspartic acid (PLAA, Mw=13 kDa), sodium carboxymethyl cellulose (Na CMC, high viscosity), or polyacrylic acid (PAA, 2, 90 or 750 kDa). The reactivity of the TGF-β1 was then determined by the ELISA procedure, as described in Example 2.
Next, the ability of the additives to […] was investigated. Alginate solutions were prepared in accordance with the procedure of Example 1, incorporating 50 μg of TGF-β1, 0-0.15% (w/v) of sodium alginate and 0.1-1.0 mg (up to 0.125% w/v) of PAA (750 kDa), PLAA (13 kDa), NaCMC high viscosity or glutamic acid. The immunoreactivity of TGF-β1 was determined by ELISA as described in Example 2.
Alginate beads were prepared according to the procedure of Example 1 incorporating 50 μg TGF-β1 and 0.1-1.0 mg of additives. […] In addition, Poly-L-Lysine (PLL;123 kDa) was incorporated as a potential polycationic competitor. The additives were incorporated at an alginate:additive w/w ratio of from 75:10 to 75:1 as indicated below in Table 3.
To further assess the effect of amount of PAA incorporation on immunoreactivity of released TGF-β1, alginate beads were prepared by incubating TGF-β1 and PAA (90 kDa) for either 5 or 60 minutes (see FIG. 7) in w/w ratios of 75:1, 75:6 and 75:10, followed by dilution, addition of alginate, and bead formation in 1% CaCl2. The beads were acid treated in 0.1 N HCl at 37° C. for 30 minutes and then incubated at 37° C. in PBS, pH 7.4.

[2] = system: gastrointestinal tract; conditions: sequential chemotherapeutic protocols; cited from earlier work
[3] = system: cells of epithelial origin, including human and rodent derived intestinal cells; conditions: cited from earlier work
[4] = type: physicochemical
Method: Beads prepared in accordance with the procedure of Example 1 and containing 50 μg of ^125 I-TGF-β1 in 3.75-7.5 mg (original weight of alginate) were transferred to 15.0 mL polypropylene tubes containing 13.0 mL of PBS or of 0.1 N HCl at 37° C. In some cases, 1% BSA was added to the release media. The polypropylene tubes were gently shaken using a orbital shaker (200 rotations/minutes). At selected times, 100 μL aliquots were taken and counted for radioactivity. Care was taken so that aliquots contained no beads or bead fragments. The cumulative ^125 I-TGF-β1 released from the beads was calculated after correcting for volume changes. After 24 hours, the beads in 0.1 N HCl were transferred to PBS.
Alginate beads containing TGF-β1 and 90 kDa PAA (75:10 w/w in alginate:PAA) were prepared following the procedure of Example 1, and were acid treated for 30 minutes at 37° C. in 0.1 N HCl, as described in Example 2. The beads were then placed in PBS, pH 7.4, and the immunoreactivity of released TGF-β1 was determined by ^125 I radiolabel and ELISA, as described in Example 2. In addition, a growth inhibitory assay (GIA) was used to determine the bioactivity of the TGF-β1. The GIA measures the ability of TGF-β1 to inhibit the growth of mink lung epithelial cells (ATCC #CCL64) (T. Ikedaet al., "Human Transforming Growth Factor Type β2: Production By a Prostatic Adenocarcinoma Cell Line, Purification and Initial Characterization," Biochemistry 26:2406-2410 (1987)). The activity of the growth factor was determined by the inhibitory response of the cells to different concentrations of TGF-β1. Cell viability was based on the enzymatic cleavage by metabolically active cells of a tetrazolium salt into an orange/red formazan product. Prior to the assay cells were trypsinized and plated in a 96-well flat bottomed plate (Costar) at a concentration of 1000 cells/well. After allowing the cells to attach, samples containing the TGF-β1 and a reference standard were diluted to concentrations ranging from 1000 to 1.95 pg/ml and added to the wells. The cells were incubated for four days after which time a 100 μL solution containing 25 μg of sodium 3"-[1-(phenylamino)-carbonyl]-3,4-tetrazolium-bis(4-methoxy-6-nitro) benzene sulfonic acid hydrate (Diagnostic Chemicals, Ltd.) and 5 mM phenazine methosulfate (Aldrich) in media was added to each well. The cells were then incubated for 7 hours and the plates read on a microplate reader at an absorbance of 450 nm with a 630 nm reference filter. The specific activity of a sample was calculated relative to the reference material.

[5] = system: mouse anti-Oncostatin-M antibody, 11R2; test: ELISA of immunoreactive Oncostatin-M released from alginate beads; type: binding; conditions: PBS
Method: Following the procedure of Example 1, alginate beads were prepared from 800 μl of an aqueous solution containing 25 μg of Oncostatin-M (site source) and 3750 μg of sodium alginate (Sigma, Low Viscosity). To a portion of the solution was added 300 μg of PAA (Jannsen, 90 kDa) prior to bead formation. Samples of the beads, both with and without added PAA, were subject to acid treatment by incubating the beads in 0.1 N HCl at 37° C. for 30 minutes, as described in Example 2. The beads were then placed in PBS, and the percentage amount of immunoreactive Oncostatin-M was determined by ELISA assay following the procedure of Example 2 using a mouse anti-Oncostatin-M antibody, 11R2 (Bristol-Myers Squibb, Seattle, WA) as the capture antibody and biotinylated 1R10 mouse anti-Oncostatin-M antibody (Bristol-Myers Squibb, Seattle, WA) as the probe, followed by horseradish peroxidase/avidin D. The results are shown in FIG. 8, in which (.quadrature.) represents acid treated beads containing PAA, represents bead containing PAA which were not acid treated, represents beads without PAA which were acid treated, and represents beads without PAA which were not acid treated.

[6] = system: mouse antiamphiregulin monoclonal antibody, 6R1C1; test: ELISA of immunoreactive Amphiregulin released from alginate beads; type: binding; conditions: PBS
Method: The procedure of Example 10 was repeated substituting 25 μg of Amphiregulin for the Oncostatin-M of Example 11 and using a mouse antiamphiregulin monoclonal antibody, 6R1C1 (Bristol-Myers Squibb, Seattle, WA) as the capture antibody, followed by a goat anti-mouse horseradish peroxidase probe (Southern Biotech). The results are shown in FIG. 9 in which the symbols have the meanings of FIG. 8.

Molecule: N[C@@H](CC(=O)O)C(=O)O [aspartic acid, L-aspartic acid, reference compound]
- Interference of additive with ELISA measured binding activity of TGF-β1 [1]: interfered to a lesser extent

Molecule: Nc1ccn([C@@H]2O[C@H](CO)[C@@H](O)[C@@H]2O)c(=O)n1 [cytosine arabinoside]
- Gastrointestinal toxic alterations [2]: surface and glandular epithelial atypia, immaturity and necrosis

Molecule: O=c1[nH]c(=O)n([C@H]2C[C@H](O)[C@@H](CO)O2)cc1F [floxuridine]
- Gastrointestinal toxic alterations [2]: surface and glandular epithelial atypia, immaturity and necrosis

Molecule: N[C@@H](CCC(=O)O)C(=O)O [glutamic acid, L-glutamic acid, reference compound]
- Interference of additive with ELISA measured binding activity of TGF-β1 [1]: interfered to a lesser extent

Molecule: CO[C@@]12[C@H](COC(N)=O)C3=C(C(=O)C(C)=C(N)C3=O)N1C[C@@H]1N[C@@H]12 [mitomycinC]
- Gastrointestinal toxic alterations [2]: surface and glandular epithelial atypia, immaturity and necrosis

Molecule: TGF-β
- Growth inhibition [3]: inhibit the growth of many cells of epithelial origin

Molecule: ^125 I-TGF-β1: TGF-β1 radioiodinated by a modified chloramine-T method
- 125I-TGF-β1 released in 0.1 N HCl ([4]; 0.1 N HCl, 24 hours, 37° C.): essentially no
- Further 125I-TGF-β1 release ([4]; PBS, even after 72 hours): no further ^125 I-TGF-β1 was released
- Lag period before release ([4]; PBS, pH 7.4, 37° C.): 4 h
- Cumulative 125I-TGF-β1 released (plateau) ([4]; PBS, pH 7.4, 37° C., after 20 hours, no acid treatment, no PAA): 81%
- 125I-TGF-β1 released after transfer from 0.1 N HCl to PBS ([4]; transferred to PBS after 24 hours in 0.1 N HCl, in 2.5 hours): 100%

B1: Oncostatin-M: 25 μg of Oncostatin-M encapsulated in alginate beads with or without PAA (protein, UniProt P13725 26-221, looked up)
Oncostatin-M: AAIGSCSKEYRVLLGQLQKQTDLMQDTSRLLDPYIRIQGLDVPKLREHCRERPGAFPSEETLRGLGRRGFLQTLNATLGCVLHRLADLEQRLPKAQDLERSGLNIEDLEKLQMARPNILGLRNNIYCMAQLLDNSDTAEPTKAGRGASQPPTPTPASDAFQRKLEGCRFLHGYHRFMHSVGRVFSKWGESPNRSRR
modifications: alginate bead encapsulation
notes: 25 μg of Oncostatin-M encapsulated in alginate beads with or without PAA
- Immunoreactive Oncostatin-M released, acid treated beads containing PAA ([5]; PAA 90 kDa): 85%
- Immunoreactive Oncostatin-M released, non acid treated beads containing PAA ([5]; PAA 90 kDa): 38%
- Immunoreactive Oncostatin-M released, "non acid treated beads with PAA" (second value) [5]: 20%
- Immunoreactive Oncostatin-M released, acid treated beads without PAA [5]: 18%

B2: Amphiregulin: 25 μg of Amphiregulin encapsulated in alginate beads with or without PAA (protein, UniProt P15514 101-187, looked up)
Amphiregulin: SVRVEQVVKPPQNKTESENTSDKPKRKKKGGKNGKNRRNRKKKNPCNAEFQNFCIHGECKYIEHLEAVTCKCQQEYFGERCGEKSMK
modifications: encapsulated in alginate beads
notes: 25 μg of Amphiregulin encapsulated in alginate beads with or without PAA
- Immunoreactive Amphiregulin released, acid treated beads containing PAA [6]: 67%
- Immunoreactive Amphiregulin released, acid treated beads without PAA [6]: 31%
- Immunoreactive Amphiregulin released, non acid treated beads containing PAA [6]: 52%
- Immunoreactive Amphiregulin released, non acid treated beads without PAA [6]: 22%
